Target: the molecule itself
Experiment: crystal structure

B1: MetA crystallisation construct (C-terminal residues 297-309 truncated, P257I) (enzyme, E. coli, UniProt P07623 2-296, looked up)
chain: PIRVPDELPAVNFLREENVFVMTTSRASGQEIRPLKVLILNLMPKKIETENQFLRLLSNSPLQVDIQLLRIDSRESRNTPAEHLNNFYCNFEDIQDQNFDGLIVTGAPLGLVEFNDVAYWPQIKQVLEWSKDHVTSTLFVCWAVQAALNILYGIPKQTRTEKLSGVYEHHILHPHALLTRGFDDSFLAPHSRYADFPAALIRDYTDLEILAETEEGDAYLFASKDKRIAFVTGHPEYDAQTLAQEFFRDVEAGLDIDVPYNYFPHNDPQNTPRASWRSHGNLLFTNWLNYYVYQI
- binding result: binds
